Laboratory results from US20110274702A1.

How the values were obtained:
Test in all cases: ELISA on coated HA
[1] = target: B/Ohio/1/05 HA protein (influenza B virus B/Ohio/1/05)
[2] = target: H10N4 A/mink/Sweded/3900/84 HA protein (influenza A virus H10N4 A/mink/Sweded/3900/84)
[3] = target: H1N1 A/Brisbane/59/07 HA protein (influenza A virus H1N1 A/Brisbane/59/07)
[4] = target: H3N2 A/Brisbane/10/07 HA protein (influenza A virus H3N2 A/Brisbane/10/07)
[5] = target: H3N2 A/New York/55/04 HA protein (influenza A virus H3N2 A/New York/55/04)
[6] = target: H3N2 A/Wyoming/3/03 HA protein (influenza A virus H3N2 A/Wyoming/3/03)
[7] = target: H4N6 A/duck/Czechoslovakia/56 HA protein (influenza A virus H4N6 A/duck/Czechoslovakia/56) (UniProt P19696)
[8] = target: H5N1 A/Viet Nam/1/05 HA protein (influenza A virus H5N1 A/Viet Nam/1/05)
[9] = target: H5N1 A/Viet Nam/1203/04 HA protein (influenza A virus H5N1 A/Viet Nam/1203/04)
[10] = target: H6N5 A/shearwater/Australia/1/72 HA protein (influenza A virus H6N5 A/shearwater/Australia/1/72)
[11] = target: H7N3 A/Canada/444/04 HA protein (influenza A virus H7N3 A/Canada/444/04)
[12] = target: H7N7 A/Netherlands/219/03 HA protein (influenza A virus H7N7 A/Netherlands/219/03)
[13] = target: H8N4 A/Alberta/357/84 HA protein (influenza A virus H8N4 A/Alberta/357/84)
[14] = target: H9N2 A/Hong Kong/1073/99 HA protein (influenza A virus H9N2 A/Hong Kong/1073/99)

Measured: EC50

ctr (antibody)
> 20 µg/mL: [1] | [2] | [3] | [4] | [5] | [6] | [7] | [8] | [9] | [10] | [11] | [12] | [13] | [14]
